# From patent publication US20170240614A1
# How the values were obtained:
# [1] = molecular target: human insulin receptor isoform A (hIR-A) (human) (UniProt P06213); experiment: competitive radioligand binding (SPA), [125I]-A14-insulin, hIR-A membranes
# [2] = molecular target: human insulin receptor isoform B (hIR-B) containing a C9 epitope tag at the C-terminus (human) (UniProt P06213); experiment: competitive radioligand binding (SPA), [125I]-A14-insulin, hIR-B membranes
# [3] = molecular target: human insulin receptor isoform B (hIR-B) containing a C9 epitope tag at the C-terminus (human) (UniProt P06213); experiment: cell-based or functional assay
substance,measurement,setting,value
IGF-1 (from UniProt P05019 49-118) (ligand),Ki,[1],4.1 nM
same,Ki,[2],50.8 nM
same,Receptor Phosphorylation EC50,[3],253 nM
